The results in this text go back to PMC4895385, “The ubiquitin E3 ligase TRAF6 exacerbates pathological cardiac hypertrophy via TAK1-dependent signalling” (Nature Communications, 2016).

This test concerns the target T1, FLAG-tagged TAK1 (pcDNA5-FLAG-TAK1) (human, UniProt O43318-2 1-579).
T1 construct: TAK1 (MAP3K7), human, gene cloned into pcDNA5-FLAG-C1; the truncates end at residue 579, so the 579-residue isoform is meant; source: HEK293T, transfected, in lysate; immunopurified from HEK293T (eluted with FLAG peptide) for the GST pull-down
T1 sequence (looked up): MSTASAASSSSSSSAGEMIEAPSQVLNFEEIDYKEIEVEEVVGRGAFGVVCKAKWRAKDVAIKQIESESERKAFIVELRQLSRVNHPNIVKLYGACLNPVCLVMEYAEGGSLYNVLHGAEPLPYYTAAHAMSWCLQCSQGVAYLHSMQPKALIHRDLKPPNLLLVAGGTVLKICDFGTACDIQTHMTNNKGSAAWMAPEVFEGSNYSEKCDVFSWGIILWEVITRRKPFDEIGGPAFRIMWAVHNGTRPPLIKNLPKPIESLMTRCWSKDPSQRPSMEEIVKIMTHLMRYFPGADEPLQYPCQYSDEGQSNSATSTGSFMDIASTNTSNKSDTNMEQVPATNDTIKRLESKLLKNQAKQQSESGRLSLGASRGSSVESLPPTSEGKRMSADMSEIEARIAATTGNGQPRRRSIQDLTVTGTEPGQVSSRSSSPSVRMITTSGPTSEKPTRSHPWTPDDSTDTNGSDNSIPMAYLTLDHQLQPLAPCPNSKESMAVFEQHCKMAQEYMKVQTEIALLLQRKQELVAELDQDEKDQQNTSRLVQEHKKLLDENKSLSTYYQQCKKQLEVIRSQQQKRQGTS
Put plainly: pull-down; GST-TRAF6 retained on glutathione-Sepharose 4B beads, incubated 4 h at 4 °C with immunopurified Flag-TAK1 from HEK293T cells; eluted with 20 mM reduced glutathione; blot with anti-FLAG. The settings on record: both partners purified.

B1: GST-tagged TRAF6 (pGEX-4T-1-GST-TRAF6) (natural protein, human, UniProt Q9Y4K3 1-522, looked up)
chain: MSLLNCENSCGSSQSESDCCVAMASSCSAVTKDDSVGGTASTGNLSSSFMEEIQGYDVEFDPPLESKYECPICLMALREAVQTPCGHRFCKACIIKSIRDAGHKCPVDNEILLENQLFPDNFAKREILSLMVKCPNEGCLHKMELRHLEDHQAHCEFALMDCPQCQRPFQKFHINIHILKDCPRRQVSCDNCAASMAFEDKEIHDQNCPLANVICEYCNTILIREQMPNHYDLDCPTAPIPCTFSTFGCHEKMQRNHLARHLQENTQSHMRMLAQAVHSLSVIPDSGYISEVRNFQETIHQLEGRLVRQDHQIRELTAKMETQSMYVSELKRTIRTLEDKVAEIEAQQCNGIYIWKIGNFGMHLKCQEEEKPVVIHSPGFYTGKPGYKLCMRLHLQLPTAQRCANYISLFVHTMQGEYDSHLPWPFQGTIRLTILDQSEAPVRQNHEEIMDAKPELLAFQRPTIPRNPKGFGYVTFMHLEALRQRTFIKDDTLLVRCEVSTRFDMGSLRREGFQPRSTDAGV
notes: TRAF6, human, gene cloned into pGEX-4T-1; pGEX-4T-1 normally places GST at the N-terminus (surmised); source: E. coli Rosetta (DE3), retained on glutathione-Sepharose 4B beads and washed
On to B1, for which the binding result was “binds”.
